# From US20150139990A1 (DAINIPPON SUMITOMO PHARMA, published 2015)
# T1: human CD81 mutant V169A (human, UniProt P60033 1-236, limits assumed)
# T1 construct: as m30; not shown: C-terminal V5 and 6xHis tags
# T1 sequence: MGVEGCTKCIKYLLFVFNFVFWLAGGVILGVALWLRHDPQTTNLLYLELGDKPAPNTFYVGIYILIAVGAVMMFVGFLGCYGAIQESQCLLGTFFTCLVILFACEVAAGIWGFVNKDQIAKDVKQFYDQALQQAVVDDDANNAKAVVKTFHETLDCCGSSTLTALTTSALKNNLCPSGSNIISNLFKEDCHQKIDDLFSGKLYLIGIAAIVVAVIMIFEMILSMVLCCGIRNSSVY
# T2: human CD81 on CD81-expressing cells (Jurkat E6.1, human PBMC, Ramos) (human, UniProt P60033 1-236)
# T2 sequence: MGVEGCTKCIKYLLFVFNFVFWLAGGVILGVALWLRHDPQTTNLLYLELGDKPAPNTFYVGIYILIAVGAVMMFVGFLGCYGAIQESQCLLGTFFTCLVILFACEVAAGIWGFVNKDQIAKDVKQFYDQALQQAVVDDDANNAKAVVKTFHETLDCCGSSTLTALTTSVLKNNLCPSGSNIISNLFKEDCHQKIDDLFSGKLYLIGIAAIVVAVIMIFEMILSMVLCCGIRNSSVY
# T3: human CD81 mutant A164V (human, UniProt P60033 1-236, limits assumed)
# T3 construct: as m30; not shown: C-terminal V5 and 6xHis tags
# T3 sequence: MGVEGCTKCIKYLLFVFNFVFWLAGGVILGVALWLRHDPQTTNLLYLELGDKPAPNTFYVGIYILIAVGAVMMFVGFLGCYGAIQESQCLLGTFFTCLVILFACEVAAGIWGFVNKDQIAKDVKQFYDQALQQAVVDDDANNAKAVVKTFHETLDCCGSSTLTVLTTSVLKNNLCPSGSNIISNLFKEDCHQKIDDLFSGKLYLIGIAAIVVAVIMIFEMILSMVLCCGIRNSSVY
# T4: human CD81 mutant V135A (human, UniProt P60033 1-236, limits assumed)
# T4 construct: as m30; not shown: C-terminal V5 and 6xHis tags
# T4 sequence: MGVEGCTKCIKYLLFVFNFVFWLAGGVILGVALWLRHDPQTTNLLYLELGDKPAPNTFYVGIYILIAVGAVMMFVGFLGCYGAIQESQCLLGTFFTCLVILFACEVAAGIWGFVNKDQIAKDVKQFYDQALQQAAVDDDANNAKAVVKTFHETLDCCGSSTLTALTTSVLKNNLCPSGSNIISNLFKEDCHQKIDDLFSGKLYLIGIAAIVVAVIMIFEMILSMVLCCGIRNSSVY
# T5: human CD81 mutant A164T (human, UniProt P60033 1-236, limits assumed)
# T5 construct: as m30; not shown: C-terminal V5 and 6xHis tags
# T5 sequence: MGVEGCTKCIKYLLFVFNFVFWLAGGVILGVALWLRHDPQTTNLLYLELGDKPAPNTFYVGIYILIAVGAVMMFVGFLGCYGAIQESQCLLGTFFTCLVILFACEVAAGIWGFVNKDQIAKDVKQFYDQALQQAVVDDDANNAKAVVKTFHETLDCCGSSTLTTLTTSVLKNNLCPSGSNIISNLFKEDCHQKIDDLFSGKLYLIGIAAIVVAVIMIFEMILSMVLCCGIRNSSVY
# T6: human CD81 mutant L165A (human, UniProt P60033 1-236, limits assumed)
# T6 construct: as m30; not shown: C-terminal V5 and 6xHis tags
# T6 sequence: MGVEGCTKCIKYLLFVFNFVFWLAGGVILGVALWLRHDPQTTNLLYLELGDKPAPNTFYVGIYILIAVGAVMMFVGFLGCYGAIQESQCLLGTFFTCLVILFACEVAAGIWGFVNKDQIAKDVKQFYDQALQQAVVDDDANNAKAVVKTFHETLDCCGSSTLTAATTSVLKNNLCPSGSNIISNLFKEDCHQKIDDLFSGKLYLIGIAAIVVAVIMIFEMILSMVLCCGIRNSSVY
# T7: human CD81 mutant V169L (human, UniProt P60033 1-236, limits assumed)
# T7 construct: as m30; not shown: C-terminal V5 and 6xHis tags
# T7 sequence: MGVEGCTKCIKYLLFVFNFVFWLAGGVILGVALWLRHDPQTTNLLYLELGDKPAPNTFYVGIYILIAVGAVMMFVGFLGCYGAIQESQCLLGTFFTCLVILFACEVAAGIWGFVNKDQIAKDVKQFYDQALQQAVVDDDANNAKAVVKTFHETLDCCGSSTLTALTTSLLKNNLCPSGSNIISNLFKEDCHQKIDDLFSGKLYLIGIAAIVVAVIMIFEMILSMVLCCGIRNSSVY
# T8: human CD81 mutant D137A (human, UniProt P60033 1-236, limits assumed)
# T8 construct: as m30; not shown: C-terminal V5 and 6xHis tags
# T8 sequence: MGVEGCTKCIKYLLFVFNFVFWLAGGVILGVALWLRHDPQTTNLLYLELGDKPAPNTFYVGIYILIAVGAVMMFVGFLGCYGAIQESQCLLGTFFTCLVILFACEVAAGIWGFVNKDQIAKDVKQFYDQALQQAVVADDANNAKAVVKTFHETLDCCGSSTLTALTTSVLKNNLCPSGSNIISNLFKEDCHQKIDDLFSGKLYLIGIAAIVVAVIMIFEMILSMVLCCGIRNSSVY
# Experiments:
# [1] = biological target: T1, human CD81 mutant V169A; test: ELISA
# [2] = biological target: T2, human CD81 on CD81-expressing cells …; test: cell-based or functional assay
# [3] = biological target: T3, human CD81 mutant A164V; test: ELISA
# [4] = biological target: T4, human CD81 mutant V135A; test: ELISA
# [5] = biological target: T5, human CD81 mutant A164T; test: ELISA
# [6] = biological target: T6, human CD81 mutant L165A; test: ELISA
# [7] = biological target: T7, human CD81 mutant V169L; test: ELISA
# [8] = biological target: T8, human CD81 mutant D137A; test: ELISA
relative binding affinity [1] [%],Jurkat chemotaxis (% of control IgG4) at 0.001 µg/mL [2] [%],Jurkat chemotaxis (% of control IgG4) at 0.01 µg/mL [2] [%],Jurkat chemotaxis (% of control IgG4) at 0.1 µg/mL [2] [%],Jurkat chemotaxis (% of control IgG4) at 1 µg/mL [2] [%],Jurkat chemotaxis (% of control IgG4) at 10 µg/mL [2] [%],relative binding affinity [3] [%],relative binding affinity [4] [%],relative binding affinity [5] [%],relative binding affinity [6] [%],relative binding affinity [7] [%],relative binding affinity [8] [%],Binder
< 20,102,91,35,3,3,,,,,,,"001-B06 (antibody, human IgG4 S228P, lambda, V domains shown, IgG4 S228P) VH: EVQLLESGGGLVQPGGSLRLSCAASGFTFSSNYMSWVRQAPGKGLEWVSYISSSSTYTDYADSVKGRFTISRDNSKNTLYLQMNSLRAEDTAVYYCARYSYGRDTFDYWGQGTLVTVSS VL: QSVLTQPFSASGTPGQRVTISCTGSTSNIGAGYDTHWYQQLPGTAPKLLIYGNSNRPSGVPDRFSGSKSGTSASLAISGLRPEDEADYYCQSYDTSLSVWVFGGGTKLTVLG"
< 20,106,89,13,0,-3,< 20,< 20,< 20,< 20,,,"002-H03 (antibody, human IgG4 S228P, lambda, V domains shown, IgG4 S228P) VH: EVQLLESGGGLVQPGGSLRLSCAASGFTFSSNYMSWVRQAPGKGLEWVSYISSSSTYTDYADSVKGRFTISRDNSKNTLYLQMNSLRAEDTAVYYCARYSYGRDNFDYWGQGTLVTVSS VL: QSVLTQPSSASGTPGQRVTISCTGSTSNIGAGYDTHWYQQLPGTAPKPLIYGNSNRPSGVPDRFSGSKSGTSASLAISGLRSEDEADYYCQSYDTNLSAWVFGGGTKLTVLG"
< 20,92,87,8,4,-9,< 20,< 20,< 20,< 20,< 20,,"002-B07 (antibody, human IgG4 S228P, lambda, V domains shown, IgG4 S228P) VH: EVQLLESGGGLVQPGGSLRLSCAASGFTFSSNYMSWVRQAPGKGLEWVSYISSSSTYTDYADSVKGRFTISRDNSKNTLYLQMNSLRAEDTAVYYCARYSYGRDNFDYWGQGTLVTVSS VL: QSVLTQPSSASGTPGQRVTISCTGSTSNIGAGYDTHWYQQLPGTAPKLLIYGNSNRPSGVPDRFSGSKSGTSASLAISGLRSEDEADYYCQSYDTNLSGWVFGGGTKLTVLG"
< 20,101,82,15,-1,11,< 20,< 20,< 20,< 20,< 20,,"002-C09 (antibody, human IgG4 S228P, lambda, V domains shown, IgG4 S228P) VH: EVQLLESGGGLVQPGGSLRLSCAASGFTFSSNYMSWVRQAPGKGLEWVSYISSSSTYTDYADSVKGRFTISRDNSKNTLYLQMNSLRAEDTAVYYCARYSYGRDNFDYWGQGTLVTVSS VL: QSVLTQPASASGTPGQRVTISCTGSTSNIGAGYGTHWYQRLPGTAPKLLIYGNSNRPSGVPDRFSGSKSGTSASLAISGLRSEDEADYYCQSYDTNLSGWVFGGGTKLTVLG"
< 20,101,105,67,19,14,< 20,< 20,< 20,< 20,,,"002-D08 (antibody, human IgG4 S228P, lambda, V domains shown, IgG4 S228P) VH: EVQLLESGGGLVQPGGSLRLSCATSGFPFSSNYMSWVRQAPGKGLEWVSYISSSSTYSDYADSVKGRFSISRDNSKNTLYLQMNSLRAEDTAVYYCARYSYGRDNFDYWGQGTLVTVSS VL: QSVLTQPSSASGTPGQRVTISCTGSTSNIGAGYATHWYQQLPGTAPKLLIYGNSNRPSGVPDRFSGSKSGTSASLAISGLRSEDEADYYCQSYDTNLSVWVFGGGTKLTVLG"
< 20,87,85,-1,-10,-2,< 20,< 20,< 20,< 20,< 20,,"002-H02 (antibody, human IgG4 S228P, lambda, V domains shown, IgG4 S228P) VH: EVQLLESGGGLVQPGGSLRLSCAASGFTFSSNYMSWVRQAPGKGLEWVSYISSSSTYTDYADSVKGRFTISRDNSKNTLYLQMNSLRAEDTAVYYCARYSYGRDSFDYWGQGTLVTVSS VL: QSVLTQPSSASGTPGQRVTISCTGSTSNIGAGYGTHWYQQLPGTAPKLLIYGNSNRPSGVPDRFSGSKSGTSASLAISGLRSEDEADYYCQSYDTNLSVWVFGGGTKLTVLG"
< 20,105,91,25,14,16,< 20,< 20,< 20,< 20,< 20,< 20,"002-D03 (antibody, human IgG4 S228P, lambda, V domains shown, IgG4 S228P) VH: EVQLLESGGGLVQPGGSLRLSCAASGFTFRSNYMSWVRQAPGKGLEWVSYISSSSTYTDYADSVKGRFTISRDNSKNTLYLQMNSLRAEDTAVYYCARYSYGRDNFDYWGQGTLVTVSS VL: QSVLTQPPSASGTPGQRVTISCTGSTSNIGAGYDTHWYQQLPGTAPKLLIYGNSNRPSGVPDRFSGSKSGTSASLAISGLRSEDEADYYCQSYDTNLSVWVFGGGTKLTVLG"
< 20,97,87,34,6,10,< 20,< 20,< 20,< 20,< 20,,"002-D10 (antibody, human IgG4 S228P, lambda, V domains shown, IgG4 S228P) VH: EVQLLESGGGLVQPGGSLRLSCAASGFTFSSNYMSWVRQAPGKGPEWVSYISSSSTYTDYADSVKGRFTISRDNSKNTLYLQMNSLRAEDTAVYYCARYSYGRDNFDYWGQGTLVTVSS VL: QSVLTQPSSASGTPGQRVTISCTGSTSNIGAGYDTHWYQQLPGTAPKLLIYGNSNRPSGVPDRFSGSKSGTSASLAVSGLRSEDEAEYYCQSYDTNLSGWVFGGGTKLTVLG"
